# Data as given in article PMC2658781, “Effective DNA Inhibitors of Cathepsin G by In Vitro Selection”.
# T1: Cathepsin G (CatG) (Homo sapiens, UniProt P08311 21-244)
# T1 sequence: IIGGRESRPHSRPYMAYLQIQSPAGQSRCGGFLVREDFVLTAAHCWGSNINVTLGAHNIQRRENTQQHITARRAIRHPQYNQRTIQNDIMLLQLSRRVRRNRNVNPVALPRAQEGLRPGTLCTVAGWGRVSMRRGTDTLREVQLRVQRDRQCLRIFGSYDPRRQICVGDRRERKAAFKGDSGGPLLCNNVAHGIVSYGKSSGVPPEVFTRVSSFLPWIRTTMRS
# B1: cCG51 (ssDNA)
# DNA: ACACGAATACCCTCTGTGCTCAGCGTAACACCCAAGCGTATACCCACATATCACACGTTG
# B2: pE35 (PE35), L-Tyr aptamer (ssDNA)
# DNA: AATTCGCTAGCTGGAGCTTGGATTGATGTGGTGTGTGAGTGCGGTGCCCGGATCC
# B3: CG51 (ssDNA)
# DNA: CAACGTGTGATATGTGGGTATACGCTTGGGTGTTACGCTGAGCACAGAGGGTATTCGTGT
# Columns and labels:
# Cathepsin G (CatG) [1] = target: T1, Cathepsin G (CatG); experiment: SP Sepharose chromatography (Kd in figure only); 5 mM Mg2+; SELEX and Kd: 30 mM Tris-HCl pH 7.5, 150 mM NaCl, 5 mM KCl, 5 mM MgCl2, on ice/4 C; SPR: immobilized CatG, HBS-EP pH 7.4 running buffer, oligos in the Tris buffer, 25 C; conditions: protein: native, label: 5' 32P
# Cathepsin G (CatG) [2] = target: T1, Cathepsin G (CatG); experiment: SP Sepharose chromatography; no appreciable affinity; SELEX and Kd: 30 mM Tris-HCl pH 7.5, 150 mM NaCl, 5 mM KCl, 5 mM MgCl2, on ice/4 C; SPR: immobilized CatG, HBS-EP pH 7.4 running buffer, oligos in the Tris buffer, 25 C; conditions: protein: native, label: 5' 32P
binder,measurement,setting,value
B1,binding result,Cathepsin G (CatG) [1],binds
"GGTTGGTGTGGTTGG (structured_DNA) [THR, thrombin aptamer]",binding result,"Cathepsin G (CatG) [2]; G-quartet, intramolecular",no binding
B2,binding result,Cathepsin G (CatG) [2],no binding
B3,binding result,Cathepsin G (CatG) [1]; predicted fold about -2.52 kcal/mol,binds
